Results published in the supplement of paper PMC7877785.
± gives the uncertainty stated by the source.

Experiment: self-splicing fitness, log relative to wild type (ln ratio); higher = more splicing; Tetrahymena group I intron in knt gene, E. coli kanamycin selection, DiMSum; sequences stand for … in CUCUCU…GGAGGGAAAAGUUAUCAGGCAUGCACCUGGUAGCUAGUCUUUAAACCAAUAGAUUGCAUCGGUUUAAAAGGCAAGACCGUCAAAUUGCGGGAAAGGGGUCAACAGCCGUUCAGUACCAAGUCUCAGGGGAAACUUUGAGAUGGCCUUGCAAAGGGUAUGGUAAUAAGCUGACGGACAUGGUCCUAACCACGCAGCCAAGUCCUAAGUCAACAGAUCUUCUGUUGAUAUGGAUGCAGUUCACAGACUAAAUGUCGGUCGGGGAAGAUGUAUUCUUCUCAUAAGAUAUAGUCGGACCUCUCCUUAAUGGGAGCUAGCGGAUGAAGUGAUGCAACACUGGAGCCGCUGGGAACUAAUUUGUAUGCGAAAGUAUAUUGAUUAGUUUUGGAGUACUCGUGGUCG
How it was run: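 Colonies from six replicate transformations of E. coli BL21(DE3) were pooled and amplicon-sequenced on an Illumina HiSeq 2500. The library placed an intron with all eight P1ex-region nucleotides randomised inside the knt kanamycin-resistance gene on pET-22b(+), and cells grew overnight at 37°C or 30°C on LB agar with or without 25 μg/mL kanamycin (plus 100 μg/mL carbenicillin, 50 μM IPTG, 0.2% rhamnose). Fitness is the DiMSum error-weighted combination of wild-type-normalised replicate fold changes, kanamycin versus none.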

Sequence	self-splicing fitness (ln) (30 °C)	self-splicing fitness (ln) (37 °C)
UGCUAGCAAUAUUACGUAUA	-2.81 ± 0.24	-1.1 ± 0.16
AACGAGCAAUAUUACGGGAC	-3.37 ± 0.22	-3.61 ± 0.46
UGUCAGCAAUAUUACGAAAG	-1.72 ± 0.14	-1.21 ± 0.17
AGCUAGCAAUAUUACGUUCC	-0.609 ± 0.11	-1.76 ± 0.17
CGACAGCAAUAUUACGUAUA	-4.3 ± 0.47	-1.54 ± 0.27
AAACAGCAAUAUUACGCGCU	-1.03 ± 0.072	-0.289 ± 0.087
UGUUAGCAAUAUUACGCUCU	-1.66 ± 0.16	-0.371 ± 0.16
GAUGAGCAAUAUUACGGAGG	-3.47 ± 0.26	-3.23 ± 0.35
GCUAAGCAAUAUUACGGUGC	-3.38 ± 0.22	-2.6 ± 0.39
AUAGAGCAAUAUUACGAAUU	-0.889 ± 0.15	-0.429 ± 0.23
AGGGAGCAAUAUUACGAGUG	-3.39 ± 0.36	-2.37 ± 0.3
AUGUAGCAAUAUUACGAGUA	-2.73 ± 0.17	-1.72 ± 0.13
ACUAAGCAAUAUUACGGCUA	-0.685 ± 0.085	0.0711 ± 0.11
AAACAGCAAUAUUACGCAUC	-2.82 ± 0.13	-2.07 ± 0.11
UUAAAGCAAUAUUACGCUGG	-0.4 ± 0.11	-0.152 ± 0.12
CCUUAGCAAUAUUACGUUGG	-3.71 ± 0.21	-3.32 ± 0.26
UAAUAGCAAUAUUACGUGCG	0.0578 ± 0.065	-0.0439 ± 0.091
AUGUAGCAAUAUUACGCUUA	-0.903 ± 0.14	-0.145 ± 0.16
AUAAAGCAAUAUUACGUUCC	-0.979 ± 0.13	-0.885 ± 0.18
AAAUAGCAAUAUUACGUACA	-1.23 ± 0.071	-0.523 ± 0.092
AGAUAGCAAUAUUACGCGCU	-2.31 ± 0.12	-1.44 ± 0.14
UUAGAGCAAUAUUACGGUGG	-1.95 ± 0.12	-0.679 ± 0.13
CUUGAGCAAUAUUACGGCGG	-1.13 ± 0.1	-0.746 ± 0.14
GCACAGCAAUAUUACGUAAG	-1.38 ± 0.06	-0.717 ± 0.079
UGUUAGCAAUAUUACGGGGU	-2.47 ± 0.26	

Sequence	self-splicing fitness (ln) (30 °C)	self-splicing fitness (ln) (37 °C)
CUCUAGCAAUAUUACGCGAU	-3.29 ± 0.17	-2.88 ± 0.19
AGUGAGCAAUAUUACGUUCC	-4 ± 0.34	-1.47 ± 0.16
CCCUAGCAAUAUUACGACCG	-1.21 ± 0.2	-2.17 ± 0.34
CGGAAGCAAUAUUACGAGGA	-1.95 ± 0.2	-1.4 ± 0.19
CAUGAGCAAUAUUACGUUAA	-3.17 ± 0.32	-2.29 ± 0.26
UAACAGCAAUAUUACGUCUA	-0.13 ± 0.049	0.144 ± 0.06
CGACAGCAAUAUUACGUUGG	-2.92 ± 0.1	-1.54 ± 0.1
GGCUAGCAAUAUUACGCCUG	-3.72 ± 0.29	-1.95 ± 0.23
CGCCAGCAAUAUUACGUACU	-2.58 ± 0.16	-2.02 ± 0.2
AUCAAGCAAUAUUACGGGAU	-2.33 ± 0.097	-2.12 ± 0.13
UCUCAGCAAUAUUACGUAGC	-1.31 ± 0.17	-1.16 ± 0.23
GGAUAGCAAUAUUACGCGAA	-1.69 ± 0.29	-1.41 ± 0.42
UAUUAGCAAUAUUACGUGCU	-2.12 ± 0.12	-2.04 ± 0.15
CCCAAGCAAUAUUACGGGCA	-3.96 ± 0.18	-1.82 ± 0.11
CGCAAGCAAUAUUACGGACA	-0.905 ± 0.14	-0.195 ± 0.14
GACAAGCAAUAUUACGAUAA	-1.68 ± 0.11	-0.345 ± 0.1
UCCGAGCAAUAUUACGUAGU	-2.97 ± 0.16	-2.71 ± 0.18
UUACAGCAAUAUUACGCCCA	-1.62 ± 0.32	-0.254 ± 0.3
GGCCAGCAAUAUUACGCGCU		-1.76 ± 0.39
UGCUAGCAAUAUUACGUUAA	-2.54 ± 0.14	-0.941 ± 0.11
UUAAAGCAAUAUUACGAUCA	0.0315 ± 0.083	0.412 ± 0.097
UCCGAGCAAUAUUACGGGUC		-2.45 ± 0.26
UGUGAGCAAUAUUACGCCCA	-0.902 ± 0.39	-1.3 ± 0.36
UCACAGCAAUAUUACGGGGA	-1.15 ± 0.065	0.015 ± 0.076
CUCCAGCAAUAUUACGGUUA	-3.03 ± 0.18	-2.45 ± 0.16

Sequence	self-splicing fitness (ln) (30 °C)	self-splicing fitness (ln) (37 °C)
CCUCAGCAAUAUUACGGGAA	-2.4 ± 0.19	-3.35 ± 0.3
CUGAAGCAAUAUUACGGUUC	-3.05 ± 0.18	-3.5 ± 0.3
UGUUAGCAAUAUUACGAUGA	-0.408 ± 0.09	-1.06 ± 0.092
AUAUAGCAAUAUUACGUUCU	-1.47 ± 0.18	-0.302 ± 0.21
GGCCAGCAAUAUUACGAGAC	-3.29 ± 0.25	-2.77 ± 0.28
UCUAAGCAAUAUUACGGUCU	-3.41 ± 0.21	-3.34 ± 0.31
GUAAAGCAAUAUUACGGGGU	-3.02 ± 0.19	-2.25 ± 0.21
CCGUAGCAAUAUUACGCACC		-2.21 ± 0.37
CGAAAGCAAUAUUACGAUGA	-0.9 ± 0.08	-0.508 ± 0.088
UAACAGCAAUAUUACGCUAA	-1.93 ± 0.13	-1.25 ± 0.12
CUCUAGCAAUAUUACGAGAG	-2.9 ± 0.18	-1.69 ± 0.2
CUGAAGCAAUAUUACGAAGA	-2.5 ± 0.36	-0.888 ± 0.25
UGUGAGCAAUAUUACGAAUA	-3.54 ± 0.43	-2.26 ± 0.36
AAAGAGCAAUAUUACGCGUA	-1.96 ± 0.18	-1.61 ± 0.16
CUUCAGCAAUAUUACGCACC	-3.9 ± 0.47	-2.61 ± 0.35
UGGCAGCAAUAUUACGGGCC		-1.78 ± 0.28
CCCAAGCAAUAUUACGCAGU	-3.15 ± 0.14	-2.32 ± 0.18
AUGCAGCAAUAUUACGUACC	-0.541 ± 0.084	0.409 ± 0.1
UGGGAGCAAUAUUACGGACA	-1.7 ± 0.14	-0.535 ± 0.13
GAGCAGCAAUAUUACGCUAG	-2.4 ± 0.14	-1.53 ± 0.17
UAAAAGCAAUAUUACGUAAG	-1.01 ± 0.079	-0.764 ± 0.11
UCUUAGCAAUAUUACGGACA	-2.63 ± 0.2	-1.19 ± 0.14
AGCUAGCAAUAUUACGGCGA	-0.581 ± 0.081	0.0269 ± 0.12
AUGGAGCAAUAUUACGCCUG	-2.34 ± 0.27	-2.3 ± 0.28
CCCGAGCAAUAUUACGACCU	-2.45 ± 0.31	-2.19 ± 0.32

Sequence	self-splicing fitness (ln) (30 °C)	self-splicing fitness (ln) (37 °C)
AGCAAGCAAUAUUACGAACG	-0.526 ± 0.083	-0.449 ± 0.1
CUAAAGCAAUAUUACGCAUA	-3.66 ± 0.23	-2.65 ± 0.24
AUGGAGCAAUAUUACGUUAG	-3.17 ± 0.32	-2.49 ± 0.29
UUCUAGCAAUAUUACGACUU	-1.77 ± 0.24	-1.59 ± 0.19
AAACAGCAAUAUUACGAGAG	-2.76 ± 0.18	-2.91 ± 0.16
GAUUAGCAAUAUUACGGUGG	-2.89 ± 0.2	-2.88 ± 0.2
CAAGAGCAAUAUUACGUAUC	-3.78 ± 0.17	-2.67 ± 0.2
UGAAAGCAAUAUUACGGUUC	-4.11 ± 0.26	-2.41 ± 0.23
AUCAAGCAAUAUUACGAGCG	-1.92 ± 0.12	-1.21 ± 0.14
UGUGAGCAAUAUUACGGAAC		-1.72 ± 0.48
GGGCAGCAAUAUUACGCUCA	-1.09 ± 0.094	-0.272 ± 0.16
CGCCAGCAAUAUUACGCAAC	-3.25 ± 0.27	-3.44 ± 0.42
CUUUAGCAAUAUUACGGCCC	-1.71 ± 0.47	
UUAGAGCAAUAUUACGGUAA	-1.34 ± 0.086	-0.0767 ± 0.11
GGUAAGCAAUAUUACGAAUA	-1.25 ± 0.26	-0.561 ± 0.27
CGAUAGCAAUAUUACGCUGA	-2.46 ± 0.17	-1.59 ± 0.16
AUUAAGCAAUAUUACGUACG	-1.15 ± 0.13	-0.777 ± 0.14
CCCCAGCAAUAUUACGGUGG	-4.09 ± 0.2	-1.86 ± 0.11
AGCUAGCAAUAUUACGAGAC	-2.16 ± 0.24	-2.14 ± 0.31
UAGUAGCAAUAUUACGCGCA	-0.614 ± 0.1	0.274 ± 0.11
AACAAGCAAUAUUACGCCUU	-0.742 ± 0.11	-0.314 ± 0.12
CGUAAGCAAUAUUACGGCUC		-0.977 ± 0.42
